Experimental data from article PMC11102832.
Where two headings read alike, the source gives them in different places.

Columns and labels:
[1] = molecular target: CGRP receptor (CLR-RAMP1) (human) (UniProt Q16602)
[2] = molecular target: AM2 receptor (CLR-RAMP3) (human) (UniProt Q16602)
[3] = molecular target: AM1 receptor (CLR-RAMP2) (human) (UniProt Q16602)
[4] = molecular target: CGRP receptor (CLR-RAMP1) (human) (UniProt Q16602); remark: listed apart in the source
[5] = molecular target: AM2 receptor (CLR-RAMP3) (human) (UniProt Q16602); remark: listed apart in the source
[6] = molecular target: AM1 receptor (CLR-RAMP2) (human) (UniProt Q16602); remark: listed apart in the source
[7] = molecular target: CGRP receptor (CLR-RAMP1) (human) (UniProt Q16602); remark: listed apart in the source
[8] = molecular target: AM2 receptor (CLR-RAMP3) (human) (UniProt Q16602); remark: listed apart in the source
[9] = molecular target: AM1 receptor (CLR-RAMP2) (human) (UniProt Q16602); remark: listed apart in the source
[10] = molecular target: calcitonin receptor (CTR) (human)
Sequence of calcitonin receptor (CTR) (human) (P30988 25-474): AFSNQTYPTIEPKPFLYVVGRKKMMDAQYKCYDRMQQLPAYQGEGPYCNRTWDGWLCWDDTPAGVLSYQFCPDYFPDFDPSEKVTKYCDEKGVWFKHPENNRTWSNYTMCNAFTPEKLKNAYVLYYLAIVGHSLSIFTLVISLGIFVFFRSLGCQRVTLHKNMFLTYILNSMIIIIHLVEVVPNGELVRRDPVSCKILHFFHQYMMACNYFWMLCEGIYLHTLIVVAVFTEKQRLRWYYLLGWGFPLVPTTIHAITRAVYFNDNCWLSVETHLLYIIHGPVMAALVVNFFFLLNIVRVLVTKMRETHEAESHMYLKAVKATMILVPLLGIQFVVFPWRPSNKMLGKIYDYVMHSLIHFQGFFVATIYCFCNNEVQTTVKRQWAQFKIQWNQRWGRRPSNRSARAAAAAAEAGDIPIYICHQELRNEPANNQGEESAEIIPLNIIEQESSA

[11] = molecular target: amylin1 receptor (CTR-RAMP1) (human) (UniProt O60894)
Sequence of amylin1 receptor (CTR-RAMP1) (human) (O60894 whole entry, looked up): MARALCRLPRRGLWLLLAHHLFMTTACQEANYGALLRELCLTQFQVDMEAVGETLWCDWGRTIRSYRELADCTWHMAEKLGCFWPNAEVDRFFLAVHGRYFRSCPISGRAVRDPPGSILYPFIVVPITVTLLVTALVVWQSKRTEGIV

Sequence of AM2 receptor (CLR-RAMP3) (human) (Q16602 23-461, chain 1 of 2): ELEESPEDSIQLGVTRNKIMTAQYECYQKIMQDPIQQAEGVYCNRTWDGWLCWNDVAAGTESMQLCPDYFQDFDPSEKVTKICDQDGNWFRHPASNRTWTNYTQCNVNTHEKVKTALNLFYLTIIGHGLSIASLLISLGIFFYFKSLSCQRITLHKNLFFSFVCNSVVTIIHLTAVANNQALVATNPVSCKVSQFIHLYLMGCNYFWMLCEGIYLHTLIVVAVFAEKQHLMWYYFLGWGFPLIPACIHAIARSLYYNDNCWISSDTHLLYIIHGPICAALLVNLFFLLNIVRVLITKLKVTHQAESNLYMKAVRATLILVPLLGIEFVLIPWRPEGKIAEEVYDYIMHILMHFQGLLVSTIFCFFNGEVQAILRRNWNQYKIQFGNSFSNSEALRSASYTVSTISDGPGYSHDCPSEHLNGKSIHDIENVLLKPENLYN
Sequence of AM2 receptor (CLR-RAMP3) (human) (O60896 24-148, chain 2 of 2, further chain): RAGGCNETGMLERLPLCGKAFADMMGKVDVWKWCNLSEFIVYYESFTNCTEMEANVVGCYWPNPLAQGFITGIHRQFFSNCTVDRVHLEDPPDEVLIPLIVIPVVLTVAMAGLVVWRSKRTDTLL
Sequence of CGRP receptor (CLR-RAMP1) (human) (Q16602 23-461, chain 1 of 2): as the sequence (Q16602 23-461, chain 1 of 2) above
Sequence of CGRP receptor (CLR-RAMP1) (human) (O60894 27-148, chain 2 of 2, further chain): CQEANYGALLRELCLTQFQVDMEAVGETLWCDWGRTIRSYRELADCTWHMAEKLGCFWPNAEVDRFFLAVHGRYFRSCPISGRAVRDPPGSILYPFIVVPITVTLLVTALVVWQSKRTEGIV
Sequence of AM1 receptor (CLR-RAMP2) (human) (Q16602 23-461, chain 1 of 2): as the sequence (Q16602 23-461, chain 1 of 2) above
Sequence of AM1 receptor (CLR-RAMP2) (human) (O60895 43-175, chain 2 of 2, further chain): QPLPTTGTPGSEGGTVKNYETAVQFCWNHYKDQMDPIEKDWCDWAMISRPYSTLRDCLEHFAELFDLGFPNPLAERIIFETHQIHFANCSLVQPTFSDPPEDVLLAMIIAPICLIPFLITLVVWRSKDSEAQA
Sequence of βCGRP(1-37) (P10092 82-118): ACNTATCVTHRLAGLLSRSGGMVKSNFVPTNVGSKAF

| Molecule | pEC50 of cAMP signaling, end-point concentration-response (CAMYEL BRET, COS-7) [5] | pEC50 of cAMP signaling, end-point concentration-response (CAMYEL BRET, COS-7) [6] | pEC50 of cAMP signaling, end-point concentration-response (CAMYEL BRET, COS-7) [7] | pEC50 of cAMP signaling, end-point concentration-response (CAMYEL BRET, COS-7) [8] | pEC50 of cAMP signaling, end-point concentration-response (CAMYEL BRET, COS-7) [9] | also measured |
| --- | --- | --- | --- | --- | --- | --- |
| AM2(8-22)-AM(29-38)-AM2(34-47) (peptide) |  |  |  |  |  | pEC50 of cAMP signaling, end-point concentration-response (CAMYEL BRET, COS-7) [1]: 8.09; pEC50 of cAMP signaling, end-point concentration-response (CAMYEL BRET, COS-7) [2]: 8.72; pEC50 of cAMP signaling, end-point concentration-response (CAMYEL BRET, COS-7) [3]: 7.34 |
| AM2/IMD(8-47) [R23K/R33K] (peptide) |  |  | 8.22 | 8.74 | 7.59 |  |
| AM2/IMD(8-47) [R23Q/R33K] (peptide) |  |  | 7.5 | 7.75 | 6.9 |  |
| AM2/IMD(8-47) [R33K] (peptide) |  |  | 8.54 | 9.01 | 7.8 |  |
| AM(13-38)-AM2(23-33)-AM(39-52) (peptide) |  |  |  |  |  | pEC50 of cAMP signaling, end-point concentration-response (CAMYEL BRET, COS-7) [1]: 8.08; pEC50 of cAMP signaling, end-point concentration-response (CAMYEL BRET, COS-7) [2]: 8.42; pEC50 of cAMP signaling, end-point concentration-response (CAMYEL BRET, COS-7) [3]: 8.26 |
| AM(13-52) (peptide) | 9.63 | 9.54 |  | 9.48 | 9.52 |  |
| βCGRP(1-37) (from UniProt P10092 82-118) (peptide) |  |  |  |  |  | pEC50 of cAMP signaling, end-point concentration-response (CAMYEL BRET, COS-7) [10]: 7.79 |
| KCNTATCATQRLANFLVRSSNNLGPVLPPTNVGSNTY [rat Amylin(1-37)] |  |  |  |  |  | pEC50 of cAMP signaling, end-point concentration-response (CAMYEL BRET, COS-7) [10]: 7.63; pEC50 of cAMP signaling, end-point concentration-response (CAMYEL BRET, COS-7) [11]: 9.72 |

Now from value to molecule, other results behind:

| pEC50 of cAMP signaling, end-point concentration-response (CAMYEL BRET, COS-7) [5] | pEC50 of cAMP signaling, end-point concentration-response (CAMYEL BRET, COS-7) [6] | pEC50 of cAMP signaling, end-point concentration-response (CAMYEL BRET, COS-7) [7] | pEC50 of cAMP signaling, end-point concentration-response (CAMYEL BRET, COS-7) [8] | pEC50 of cAMP signaling, end-point concentration-response (CAMYEL BRET, COS-7) [9] | Molecule | also measured |
| --- | --- | --- | --- | --- | --- | --- |
| 8.9 | 7.66 |  |  |  | AM2/IMD(1-47) (peptide) | pEC50 of cAMP signaling, end-point concentration-response (CAMYEL BRET, COS-7) [4]: 7.81 |
| 9.33 | 8.24 | 9.17 | 9.27 | 8.51 | AM2/IMD(8-47) (peptide) | pEC50 of cAMP signaling, end-point concentration-response (CAMYEL BRET, COS-7) [4]: 8.86 |
|  |  | 8.51 | 9 | 7.62 | AM2/IMD(8-47) [R23K] (peptide) |  |
| 8.84 | 7.94 |  |  |  | AM2/IMD-53 (peptide) | pEC50 of cAMP signaling, end-point concentration-response (CAMYEL BRET, COS-7) [4]: 8.36 |
